We go through 50 sequences from the supplement of paper PMC9112550, “Optimization of the antimicrobial peptide Bac7 by deep mutational scanning” (BMC Biology, 2022).
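Further: peptides expressed intracellularly from a pBAD plasmid library in pooled LB shake-flask culture, induced with 0.3% L-arabinose, DNA abundance read by NGS, three biological replicates, DESeq2 with apeglm shrinkage.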

The data set has as its system Escherichia coli TOP10. The data set is described as follows: shrunken log2 fold change of peptide-encoding DNA abundance (4.5 h post-induction vs induction); higher = less antimicrobial activity (less host growth inhibition). Particulars: time post-induction: 4.5 h; library: site-saturation at positions 5, 18, 19, 20.
Regarding RRIRCRPPRLPRPRPRPSAIPRP, the “shrunken log2 fold change” value was -0.014.
RRIRVRPPRLPRPRPRPWRPPRP: the “shrunken log2 fold change” value was 0.328.
For RRIRTRPPRLPRPRPRPHMHPRP, the “shrunken log2 fold change” value is -0.543.
Under RRIRARPPRLPRPRPRPSYRPRP stands -0.228; under RRIRCRPPRLPRPRPRPYMRPRP, -0.142.
Consider RRIRTRPPRLPRPRPRPQNGPRP, for which the “shrunken log2 fold change” value was -0.456.
Turning to RRIRNRPPRLPRPRPRPQTNPRP, the “shrunken log2 fold change” value was -0.276.
The same measure for RRIRWRPPRLPRPRPRPVHEPRP: 0.21; for RRIRMRPPRLPRPRPRPQPWPRP: 0.561; for RRIRRRPPRLPRPRPRPIFEPRP: 0.0525.
The same measure for RRIRVRPPRLPRPRPRPKYYPRP: -0.921; for RRIRQRPPRLPRPRPRPYVPPRP: -0.157.
Under RRIRTRPPRLPRPRPRPWNNPRP stands -0.256; under RRIRGRPPRLPRPRPRPLKNPRP, 0.459.
In the case of RRIRQRPPRLPRPRPRPWRLPRP, the “shrunken log2 fold change” value was -0.0759.
Turning to RRIRNRPPRLPRPRPRPPTEPRP, the “shrunken log2 fold change” value came to 0.389.
Turning to RRIRTRPPRLPRPRPRPFELPRP, the “shrunken log2 fold change” value is -0.0363.
Under RRIRHRPPRLPRPRPRPTQPPRP stands 0.306; under RRIRTRPPRLPRPRPRPFTMPRP, -0.348; under RRIRMRPPRLPRPRPRPDATPRP, 3.93.
On to RRIRPRPPRLPRPRPRPWPRPRP, for which the “shrunken log2 fold change” value was found to be 0.766.
Under RRIRGRPPRLPRPRPRPGWGPRP stands 0.73; under RRIRYRPPRLPRPRPRPDHQPRP, -0.167.
The same measure for RRIRVRPPRLPRPRPRPMSGPRP: -0.0469; for RRIRIRPPRLPRPRPRPEWFPRP: 0.00757.
With RRIRARPPRLPRPRPRPVAVPRP, the “shrunken log2 fold change” value stood at 0.445.
The same measure for RRIRDRPPRLPRPRPRPDFHPRP: -0.139.
Under RRIRVRPPRLPRPRPRPQYKPRP stands -0.527.
The same measure for RRIRKRPPRLPRPRPRPMTDPRP: 0.103; for RRIRGRPPRLPRPRPRPCWTPRP: 0.28; for RRIRGRPPRLPRPRPRPCWDPRP: 0.217.
As for RRIRARPPRLPRPRPRPVMSPRP, the “shrunken log2 fold change” value was 0.0513.
Under RRIRFRPPRLPRPRPRPHMMPRP stands -0.283; under RRIRYRPPRLPRPRPRPQIHPRP, -1.2; under RRIRYRPPRLPRPRPRPFSKPRP, -0.107.
Take RRIRYRPPRLPRPRPRPSHWPRP: the “shrunken log2 fold change” value was -0.225.
The same measure for RRIRKRPPRLPRPRPRPYFYPRP: -0.274; for RRIRVRPPRLPRPRPRPPFQPRP: 0.164; for RRIRERPPRLPRPRPRPYAHPRP: -0.0128.
Consider RRIRFRPPRLPRPRPRPGFEPRP, for which the “shrunken log2 fold change” value was -0.0266.
Under RRIRLRPPRLPRPRPRPRVVPRP stands -0.0437.
In the case of RRIRSRPPRLPRPRPRPNVCPRP, the “shrunken log2 fold change” value was -0.0635.
As to RRIRLRPPRLPRPRPRPEQCPRP, the “shrunken log2 fold change” value is -0.0243.
With RRIRCRPPRLPRPRPRPYNYPRP, the “shrunken log2 fold change” value was -0.914.
The same measure for RRIRVRPPRLPRPRPRPMFAPRP: -0.0323.
For the sequence RRIRLRPPRLPRPRPRPRLGPRP, the “shrunken log2 fold change” value was found to be 0.518.
The same measure for RRIRWRPPRLPRPRPRPLIYPRP: -0.299.
Under RRIRYRPPRLPRPRPRPPTSPRP stands -0.0241.
The same measure for RRIRYRPPRLPRPRPRPRCTPRP: -0.407.
For RRIRNRPPRLPRPRPRPYPQPRP, the “shrunken log2 fold change” value is -0.138.
